This note sets out measurements from patent publication US20060121580A1 (CRUCELL HOLLAND B V, published 2006).

Where a chain is given by its changes, count along the chain named.

Assay [1] deals with S318-510 fragment (amino acids 318-510 of the S protein of SARS-CoV Frankfurt 1), myc-His tagged (SARS-CoV strain Frankfurt 1, UniProt P59594 318-510). Description: IgG ELISA on S318-510 fragment. In general terms: ELISA stands for enzyme-linked immunosorbent assay.
The target of assay [2] is full length S protein of SARS-CoV expressed on HEK293T cells (SARS-CoV strain Frankfurt 1, UniProt P59594 14-1255). Kind of assay: flow cytometry, 10 µg/ml IgG on transfected HEK293T cells.
For assay [3], the target named is S565 fragment (amino acids 1-565 of the S protein of SARS-CoV), myc-His tagged (SARS-CoV strain Frankfurt 1, UniProt P59594 14-565). Kind of assay: IgG ELISA on captured S565.

B1: human monoclonal anti-SARS-CoV antibody 03-001 (antibody, V domains shown)
VH: EVQLVESGGGLVKPGGSLRLSCAASGFTFSGYSMNWVRQAPGKGLEWVSSISGGSTYYADSRKGRFTISRDNSKNTLYLQMNNLRAEDTAVYYCARHRFRHVFDYWGQGTLVTVSS
VL: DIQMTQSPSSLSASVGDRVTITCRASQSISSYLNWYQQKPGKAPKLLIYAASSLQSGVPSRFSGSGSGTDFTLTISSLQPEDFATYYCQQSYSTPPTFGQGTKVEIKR
Take B1: the binding result in assay [1] was “no binding”.

B2: human monoclonal anti-SARS-CoV antibody 03-006 (antibody, V domains shown)
VH: EVQLVESGGGLVQPGGSLRLSCAASGFTFSGYPMHWVRQAPGKGLEWVAVISYDGSNKYYADSVKGRFTISRDNSKNTLYLQMNSLRAEDTAVYYCAKDGSPRTPSFDYWGQGTLVTVSS
VL: DIQMTQSPHSLSASVGDRVTITCRASQGISNYLAWYQQKPGKVPKLLIYAASTLQSGVPSRFSGSGSGTDFTLTISSLQPEDVGVYYCQQRFRTPVTFGQGTKLEIKR
For the molecule B2, the binding result in assay [1], in assay [2] and in assay [3] was “binds” each time.

B3: human monoclonal anti-SARS-CoV antibody 03-009 (antibody, V domains shown)
VH: EVQLVESGGGVVQPGRSLRLSCAASGFTFSDYPMNWVRQAPGKGLEWVSSISGSGGSTYYADSVKGRFTISRDNSKNTLYLQMNSLRAEDTAVYYCAKGLFMVTTYAFDYWGQGTLVTVSS
VL: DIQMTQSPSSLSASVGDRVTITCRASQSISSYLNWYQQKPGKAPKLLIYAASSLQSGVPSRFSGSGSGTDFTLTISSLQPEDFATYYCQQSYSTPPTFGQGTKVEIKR
As for B3, the binding result in assay [1] is given as “no binding”.

B4: human monoclonal anti-SARS-CoV antibody 03-013 (antibody, V domains shown)
VH: EVQLVESGGGLVQPGGSLRLSCAASGFTFSDHYMDWVRQAPGKGLEWVGRTRNKANSYTTEYAASVKGRFTISRDDSKNSLYLQMNSLKTEDTAVYYCAKGLTPLYFDYWGQGTLVTVSS
VL: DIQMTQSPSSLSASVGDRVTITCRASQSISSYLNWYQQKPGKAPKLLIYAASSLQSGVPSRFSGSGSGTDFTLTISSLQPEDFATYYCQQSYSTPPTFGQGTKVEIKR
For B4, the binding result in assay [1], in assay [2] and in assay [3] was “binds” in each case.

B5: human monoclonal anti-SARS-CoV antibody 03-014 (antibody, V domains shown)
VH: B4 VH with K100R, L102I, T103S, L105F
VL: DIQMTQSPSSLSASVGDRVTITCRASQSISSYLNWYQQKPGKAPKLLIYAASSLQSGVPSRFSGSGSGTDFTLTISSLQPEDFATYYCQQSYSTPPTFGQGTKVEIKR
As to B5, the binding result in assay [1] and in assay [3] was “binds” throughout.

B6: human monoclonal anti-SARS-CoV antibody 03-002 (antibody, V domains shown)
VH: EVQLVESGGGLVKPGGSLRLSCAASGFTFSGYSMSWVRQAPGKGLEWVGRTRNKANSYTTEYAASVKGRFTISRDDSKNSLYLQMNSLKTEDTAVYYCARYYSRSLKAFDYWGQGTLVTVSS
VL: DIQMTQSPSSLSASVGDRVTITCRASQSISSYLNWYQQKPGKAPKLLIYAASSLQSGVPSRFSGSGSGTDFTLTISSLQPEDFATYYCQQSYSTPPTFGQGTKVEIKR
As to B6, the binding result in assay [1] is on record as “no binding”.

B7: human monoclonal anti-SARS-CoV antibody 03-015 (antibody, V domains shown)
VH: EVQLVESGGGVVRPGGSLRLSCAASGFTFDDYGMSWVRQAPGKGLEWVSGINWNGGSTGYADSVKGRFTISRDNAKNSLYLQMNSLRAEDTAVYYCARGLSLRPWGQGTLVTVSS
VL: SSELTQDPAESVALGQTVRITCQGDSLRSYYASWYQQKPGQAPVLVIYGKNNRPSGIPDRFSGSSSGNTASLTITGAQAEDEADYYCNSRDSSGNHVVFGGGTKLTVLG
In the case of B7, the binding result is reported as “no binding” in assay [1], “binds” in assay [2] and “no binding” in assay [3].
